Experimental findings from patent US20230416378A1 are described below.

For the assay, the target named is recombinant human VEGF-A (human) (UniProt P15692). Nature of the assay: cell-based or functional assay.
Sequence of recombinant human VEGF-A (human) (P15692 other isoform, or with tags, fused parts or gaps limits assumed): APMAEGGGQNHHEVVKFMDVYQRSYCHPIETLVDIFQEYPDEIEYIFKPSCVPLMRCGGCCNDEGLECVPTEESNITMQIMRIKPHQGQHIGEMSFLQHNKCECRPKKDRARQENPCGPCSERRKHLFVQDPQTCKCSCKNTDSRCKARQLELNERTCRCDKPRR

With “Eylea (aflibercept), VEGF trap (Fc fusion)”, the VEGF induced cell integrity loss IC50 came to 330 pM.
